# In US6790646B2, “Mutants of monoamine oxidase B” (Research Development Foundation, priority 1998, dated 2004):
# Numbering of substitutions follows the chain as printed.
# T1: MAO B (Homo sapiens, UniProt P27338, F423A)
# T1 construct: expressed in transfected cells; host or cells: COS-7
# T1 sequence (P27338 2-520 F423A): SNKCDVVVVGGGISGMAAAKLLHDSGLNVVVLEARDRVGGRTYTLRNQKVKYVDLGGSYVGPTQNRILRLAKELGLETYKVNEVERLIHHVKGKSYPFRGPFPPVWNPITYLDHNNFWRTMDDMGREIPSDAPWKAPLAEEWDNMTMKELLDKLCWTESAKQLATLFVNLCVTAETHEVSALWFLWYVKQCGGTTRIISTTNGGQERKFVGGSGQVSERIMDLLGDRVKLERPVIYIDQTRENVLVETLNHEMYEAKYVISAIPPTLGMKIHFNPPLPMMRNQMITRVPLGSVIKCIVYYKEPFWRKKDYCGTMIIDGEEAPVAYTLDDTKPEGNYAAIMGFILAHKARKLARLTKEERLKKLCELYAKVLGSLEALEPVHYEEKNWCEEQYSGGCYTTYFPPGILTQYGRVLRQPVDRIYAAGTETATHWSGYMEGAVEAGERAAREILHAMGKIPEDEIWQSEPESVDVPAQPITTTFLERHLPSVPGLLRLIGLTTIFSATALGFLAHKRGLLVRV
# T2: MAO B (Homo sapiens, UniProt P27338, E427Q)
# T2 construct: expressed in transfected cells; host or cells: COS-7
# T2 sequence (P27338 2-520 E427Q): T1 sequence (P27338 2-520 F423A) with A422F, E426Q
# B1: WT: wild-type human MAO B enzyme expressed from cDNA in pSVK3 in COS-7 cells (protein, UniProt P27338 2-520, looked up)
# Amine oxidase …: T1 sequence (P27338 2-520 F423A) with A422F
# B2: F423 A: human MAO B mutant, Phe residue at position 423 changed to Ala (protein, UniProt P27338 2-520, looked up, variant F423A)
# Amine oxidase …: T1 sequence (P27338 2-520 F423A)
# B3: E427 Q: human MAO B mutant, Glu427 changed to Gln (protein, UniProt P27338 2-520, looked up, variant E427Q)
# Amine oxidase …: T1 sequence (P27338 2-520 F423A) with A422F, E426Q
# B4: T428 S: human MAO B mutant, Thr428 changed to Ser (protein, UniProt P27338 2-520, looked up, variant T428S)
# Amine oxidase …: T1 sequence (P27338 2-520 F423A) with A422F, T427S
# B5: T428 A: human MAO B mutant, Thr428 changed to Ala (protein, UniProt P27338 2-520, looked up, variant T428A)
# Amine oxidase …: T1 sequence (P27338 2-520 F423A) with A422F, T427A
# Columns and labels:
# MAO B [1] = experiment: Kinetic analysis of wild-type and mutant MAO B with [14C]PEA substrate (transfected COS-7 cell homogenates); format: biochemical, human; conditions: PEA substrate; for Kcat / Km / Vmax: pH 7.5, 37° C., apparent, mean + S.E.M., n=3; for activity relative to wild-type: activity too low to determine kinetic parameters
# Experimental: (§1) The wild-type and mutant MAO B enzymes were expressed in mammalian COS-7 cells, and the enzymatic properties of the native enzyme and its mutant enzymes were determined and compared. Wild-type and mutant MAO B cDNAs were transiently transfected into COS-7 cells by electroporation. Cells were harvested during late log phase growth and resuspended to a concentration of 3.125×10^6 cells/ml in DMEM supplemented with 10% fetal bovine serum (FBS). Fifteen μg of normal or mutant cDNA were added to 0.8 ml (2.5×10^6 cells) of cell suspension. Electroporation was carried out in a Bio-Rad Gene Pulser with a setting of 0.25 kV and 500 μF. Cells were resuspended in 15 ml of DMEM/FBS and incubated at 37° C. with 5% CO2 for 48 h.
# (§2) Aliquots (20 μl) of transfected COS-7 cell homogenates were incubated for 10 min at 37° C. in the presence of various concentrations of [^14C]PEA (20 mCi/mmol) or [^14C]benzylamine (10 mCi/mmol) in 50 mM sodium phosphate buffer, pH 7.5 (200 μl total volume). Substrate concentrations ranged from 0.25-2.5 times the Km value (determined in pilot experiments) to yield 10 equally-spaced reciprocal increments. Parallel assays were carried out with untransfected COS-7 cell lysates as a control. Reactions were stopped by addition of 25 μl of 6 N HCl and the deaminated products were extracted by vortexing for 30 seconds with 500 μl of toluene or toluene:ethyl acetate (1:1) for benzylamine or PEA, respectively. Samples were processed as described previously (28). Apparent Km and Vmax values were determined by linear regression analysis of Lineweaver-Burk plots. Kcat values were calculated from the Vmax values divided by the concentration of wild-type or mutant MAO B determined in each experiment. Expression levels of wild-type or mutant MAO B were determined in triplicate for six separate experiments as follows: wild-type=11.1+2.07; F423A=9.30+1.89; E427Q=10.3+1.29; T428A=10.2+2.07; T428S=10.2+1.53 pmol MAO B/mg protein. Data are given as means +S.E.M. pmol/mg of protein determined using a subunit molecular weight of 58,800.
# MAO B [2] = experiment: Kinetic analysis of wild-type and mutant MAO B with [14C]benzylamine substrate (transfected COS-7 cell homogenates); format: biochemical, human; conditions: for Kcat / Km / Vmax: pH 7.5, 37° C., apparent, mean + S.E.M., n=3; for activity relative to wild-type: activity too low to determine kinetic parameters; for Kcat reduced by: versus wild-type
# Experimental: as §1, §2
# COS-7 cells = experiment: Expression levels of wild-type or mutant MAO B in transfected COS-7 cells; conditions: transiently transfected COS-7 cells, triplicate, six experiments, mean + S.E.M., subunit molecular weight 58,800
# Experimental: as §1, §2
# MAO B [3] = experiment: pH profiles of wild-type and mutant MAO B enzymatic activity with [14C]benzylamine; format: biochemical, human; conditions: pH 6.0 to 9.0, 500 μM benzylamine
# Experimental: (§3) Aliquots (20 μl) of transfected COS-7 cell homogenates were incubated for 10 min at 37° C. in the presence of 500 μM (^14C)benzylamine (2.5 mCi/mmol) in 50 mM sodium phosphate buffer, pH 6.0, 6.5, 7.0, 7.5, 8.0, 8.5 or 9.0 (200 μl total volume). Reactions were stopped by addition of 25 μl of 6 N HCl. Parallel assays were carried out with untransfected COS-7 homogenates as a control. Samples were processed as previously described (28) and the derived specific activity values (nmol/min·mg protein) were divided by wild-type or mutant MAO B concentration, determined for each experiment, to obtain enzymatic activity values (nmol/min·m g MAO B). Enzymatic activities were determined in duplicate for three separate experiments.
# (§4) To examine the possibility that the mutation effects a proton-dependent step in the reaction, the enzymatic activity of the mutant and wild-type MAO B enzymes was determined at different pH values from 6.0 to 9.0 (FIG. 4).
# MAO B [4] = molecular target: T1, MAO B; experiment: Kinetic analysis of wild-type and mutant MAO B with [14C]PEA substrate (transfected COS-7 cell homogenates); format: biochemical; conditions: substrate not stated in the sentence (Tables 1 and 2: PEA and benzylamine)
# Experimental: as §1, §2
# MAO B [5] = molecular target: T2, MAO B; experiment: pH profiles of wild-type and mutant MAO B enzymatic activity with [14C]benzylamine; format: biochemical; conditions: pH 6.0 to 9.0, 500 μM benzylamine
# Experimental: as §3, §4
decrease in activity compared to the wild-type enzyme (MAO B [4]) [% reduction],activity relative to wild-type (MAO B [5]),Molecule,Kcat (MAO B [1]),Km (MAO B [1]) [µM],Vmax (MAO B [1]),Kcat (MAO B [2]),Km (MAO B [2]) [µM],Vmax (MAO B [2]),Expression level (COS-7 cells),pH profile of enzymatic activity (MAO B [3]),activity relative to wild-type (MAO B [1]),activity relative to wild-type (MAO B [2]),activity relative to wild-type (MAO B [1]; listed as E427Q) [% wt],activity relative to wild-type (MAO B [2]; listed as E427Q) [% wt],Kcat relative to wild-type (reduction) (MAO B [1]),Km compared with wild-type (MAO B [2]),Kcat reduced by (MAO B [2]) [%]
–,–,B1,29.8 + 5.0 min^−1,3.38,0.325 + 0.008 nmol/min · mg protein,83.0 + 14.4 min^−1,19.3,0.879 + 0.19 nmol/min · mg protein,11.1+2.07 pmol MAO B/mg protein,characteristic increase in activity with increasing pH,–,–,–,–,–,–,–
> 95,–,B2,–,–,–,–,–,–,9.30+1.89 pmol MAO B/mg protein,fairly similar to wild-type MAO B,(<5% wt),(<5% wt),–,–,–,–,–
–,< 5 % of wild-type,B3,–,–,–,–,–,–,10.3+1.29 pmol MAO B/mg protein,essentially independent of pH,(<5% wt),(<5% wt),< 5,< 5,–,–,–
–,–,B4,14.5 + 2.0 min^−1,11.6,0.162 + 0.22 nmol/min · mg protein,27.2 + 5.8 min^−1,5.4,0.236 + 0.05 nmol/min · mg protein,10.2+1.53 pmol MAO B/mg protein,–,–,–,–,–,~50 % of wild-type,approximately equal to wild-type,67
–,–,B5,14.3 + 2.6 min^−1,11.1,0.161 + 0.039 nmol/min · mg protein,46.2 + 19.1 min^−1,18.6,0.374 + 0.06 nmol/min · mg protein,10.2+2.07 pmol MAO B/mg protein,–,–,–,–,–,~50 % of wild-type,approximately equal to wild-type,44
